Legend:
[1] = biological target: T1, RdfS (Mesorhizobium japonicum R7A (ICEMlSymR7A)) (UniProt Q7AL96); assay: EMSA; details: EMSA: DNA master mix 50 mM Tris-HCl, 150 mM NaCl, 5% glycerol, pH 7.4, 1 unit poly[d(I-C)] (10 of 20 uL), 10 nM DNA; SPR: ReDCaT on Biacore T200, 1 uM protein …
T1 sequence: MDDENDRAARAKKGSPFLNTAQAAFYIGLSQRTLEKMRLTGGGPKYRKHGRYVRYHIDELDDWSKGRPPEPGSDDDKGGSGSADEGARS

[2] = biological target: RdfS, recombination directionality factor of ICEMlSym^R7A (6H tag removed) (Mesorhizobium japonicum R7A); assay: SEC; analytical gel filtration, Superdex 75 10/300 GL, 50 mM Tris–HCl, 300 mM NaCl, 5% (v/v) glycerol, pH 7.4, 4°C, 0.5 ml/min; protein at ∼7 mg/ml, 50 μl injected; no DNA
[3] = biological target: 6H-RdfS, N-terminal hexahistidine fusion of RdfS (Mesorhizobium japonicum R7A); assay: SEC-SAXS; SEC-SY-SAXS (Australian Synchrotron) of 6H-RdfS bound to the 40-bp dsDNA attP_8; mass of the nucleoprotein complex from scattering
[4] = biological target: RdfS_(13–89), α1-truncated RdfS (Mesorhizobium japonicum R7A); assay: SEC; analytical gel filtration, Superdex 75 10/300 GL, 50 mM Tris–HCl, 300 mM NaCl, 5% (v/v) glycerol, pH 7.4, 4°C, 0.5 ml/min; protein at ∼7 mg/ml, 50 μl injected; no DNA
[5] = system: RdfS13-89 (Mesorhizobium japonicum R7A (ICEMlSymR7A)); assay: EMSA; details: EMSA: DNA master mix 50 mM Tris-HCl, 150 mM NaCl, 5% glycerol, pH 7.4, 1 unit poly[d(I-C)] (10 of 20 uL), 10 nM DNA; SPR: ReDCaT on Biacore T200, 1 uM protein …
6H-RdfS = biological target: T2, 6H-RdfS (Mesorhizobium japonicum R7A …, UniProt Q7AL96 1-89); assay: SEC-SAXS; 4:1 protein:dsDNA; EMSA: DNA master mix 50 mM Tris-HCl, 150 mM NaCl, 5% glycerol, pH 7.4, 1 unit poly[d(I-C)] (10 of 20 uL), 10 nM DNA; SPR: ReDCaT on Biacore T200, 1 uM protein; details: protein: recombinant; tags: N-terminal 6xHis; chain copies: 4; blunt
T2 sequence: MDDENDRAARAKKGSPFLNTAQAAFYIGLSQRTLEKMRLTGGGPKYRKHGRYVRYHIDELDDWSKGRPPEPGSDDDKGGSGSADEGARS

In the case of “GCCGGCTCAAGCCCTCGCGCCGCAACTCGGCGCGGGGGTTCCCGCCGACGCTCGCCCGAAGGGGCGGCGAAAACTCCCACCCGACTCTTCGCCCGTCCCCACGACGACCTCGTTCGCCGATCCTCGCGGTTGCTTGTCCGAAGCGAAACGAGGACC (double strand) [PrdfS 162 bp]”, the binding [1] is reported as “binds”.

Work on “RdfS, recombination directionality factor of ICEMlSym^R7A (6H tag removed) (natural protein)” yielded a stoichiometry N [2] of 4.

Molecule “6H-RdfS, N-terminal hexahistidine fusion of RdfS (natural protein)” has a stoichiometry N [3] of 4.

“RdfS_(13–89), α1-truncated RdfS (domain or fragment)” gave a stoichiometry N [4] of 2.

attP 283 bp was tested, and the binding signal (% of RdfS affinity) [5] was 50.

B1: attP_8 40-mer (dsDNA)
DNA 1: GAATTTCGGCGCAGTTGGTCCAACGAGGCGGGGGGCTGGT
DNA 2: ACCAGCCCCCCGCCTCGTTGGACCAACTGCGCCGAAATTC
B1: binds (6H-RdfS).

From PMC11963761, “Structural basis for control of integrative and conjugative element excision and transfer by the oligomeric winged helix–turn–helix protein RdfS”
